One test deals with T1, CD38-His fusion protein (UniProt P28907 43-300, limits assumed).
T1 construct: also called target antigen CD38-His; not shown: His tag
Briefly: ELISA on coated CD38-His, anti-human IgG HRP.

Test [1] has as its target T2, CD38 protein on the surface of Raji, Daudi, Ramos and RPMI8226 cells (human, UniProt P28907 1-300).
T2 construct: whole, on cells; also called CD38 on the surfaces of Raji cells, Daudi cells, Ramos cells and RPMI8226 cells; cell surface antigen
Briefly: flow cytometry on Raji cells.
Method: (§1) The logarithmic growth phase cells were collected, adjusted to a cell density of 5×10⁶ cells/mL, and pre-cooled on ice. […] 100 μL of cells were taken, and an equal volume of the diluted antibody was added for reaction at 4° C. for 30 min in the dark. After the completion of reaction, the cells were washed twice. The cells were resuspended in 100 μL of the diluted PE Mouse Anti-Human IgG secondary antibodies (purchased from BD Pharmingen), and reacted at 4° C. in the dark for 30 min. After the completion of reaction, the cells were washed twice with a pre-cooled normal saline containing 2% FBS. The cells were resuspended in 400 μL of 1% paraformaldehyde. Flow cytometry (BD Calibur) was used to analyze the binding ability of antibodies to cell surface antigens.

Test [2] concerns the target T2, CD38 protein on the surface of Raji, …. Briefly: flow cytometry on RPMI8226 cells.
Method: as §1
Test [3] has the same target. Briefly: cell-based or functional assay.
For test [4] the target is unchanged. Kind of test: flow cytometry on Ramos cells.
Method: as §1
Test [5] has the same target. Briefly: flow cytometry on Daudi cells.
Method: as §1
In the next test the target is BSA (BOVOGEN) (UniProt P02769 25-607). Briefly: ELISA on coated protein, anti-human IgG HRP.
BSA (BOVOGEN), sequence (P02769 25-607 limits assumed): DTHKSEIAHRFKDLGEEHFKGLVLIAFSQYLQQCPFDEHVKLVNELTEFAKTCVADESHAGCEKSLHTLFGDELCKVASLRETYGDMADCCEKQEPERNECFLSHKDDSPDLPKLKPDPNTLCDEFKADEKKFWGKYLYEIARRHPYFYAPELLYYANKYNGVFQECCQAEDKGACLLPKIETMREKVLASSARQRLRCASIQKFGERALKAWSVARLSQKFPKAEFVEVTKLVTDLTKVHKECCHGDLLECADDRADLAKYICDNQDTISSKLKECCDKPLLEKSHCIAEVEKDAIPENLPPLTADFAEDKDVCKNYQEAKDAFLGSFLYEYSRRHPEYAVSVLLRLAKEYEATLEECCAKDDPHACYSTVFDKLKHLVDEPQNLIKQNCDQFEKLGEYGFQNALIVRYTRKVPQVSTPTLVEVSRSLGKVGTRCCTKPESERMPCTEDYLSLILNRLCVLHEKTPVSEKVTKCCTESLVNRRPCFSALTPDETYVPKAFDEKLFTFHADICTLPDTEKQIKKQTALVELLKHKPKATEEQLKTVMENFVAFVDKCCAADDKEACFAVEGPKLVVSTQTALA
In test [6] the target is T3, cynomolgus monkey CD38 extracellular protein (cynomolgus monkey, UniProt Q5VAN0 44-301).
T3 construct: extracellular domain; Purchased; also called CD38 protein molecules of cynomolgus monkeys; Cynomolgus CD38
T3 sequence (Q5VAN0 44-301): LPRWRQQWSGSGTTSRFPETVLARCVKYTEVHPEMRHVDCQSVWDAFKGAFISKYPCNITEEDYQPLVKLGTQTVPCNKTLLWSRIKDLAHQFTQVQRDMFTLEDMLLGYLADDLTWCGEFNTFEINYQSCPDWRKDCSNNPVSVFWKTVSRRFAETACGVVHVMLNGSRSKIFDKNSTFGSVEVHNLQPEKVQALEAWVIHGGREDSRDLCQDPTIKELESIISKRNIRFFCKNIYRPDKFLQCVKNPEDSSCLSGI
Kind of test: ELISA on coated CD38 extracellular protein.
Method: (§2) The CD38 extracellular proteins (Beijing Yiqiao Shenzhou Biotechnology Co., Ltd.) of different species of human (Human), mouse (Mouse), rat (Rat), cynomolgus monkey (Cynomolgus) and the like were respectively used to coat ELISA strips at 1 mg/ml at 40 overnight. After washing with PBST, 10% fetal bovine serum was added and blocked at 370 for 1 hour. […] After washing with PBST, horseradish peroxidase-labeled goat anti-human IgG HRP secondary antibodies (purchased from Thermo Fisher Scientific) was added and reacted at room temperature for 30 minutes. The plate was washed with PBST (5 times), and the remaining drops were removed as possible on the absorbent paper. 100 ml of TMB (purchased from eBioscience) was added to each well, and placed at room temperature (20±5° C.) in the dark for 1-5 min. 100 ml of 2N H₂SO₄ stop solution was added to each well to quench the substrate reaction, and the OD value was read at 450 nm with a microplate, to analyze the binding ability of the antibody to CD38 protein of different species.

Test [7] has as its target T4, rat CD38 extracellular protein (rat, UniProt Q64244 45-303).
T4 construct: extracellular domain; Purchased; also called CD38 protein molecules of rats
T4 sequence (looked up): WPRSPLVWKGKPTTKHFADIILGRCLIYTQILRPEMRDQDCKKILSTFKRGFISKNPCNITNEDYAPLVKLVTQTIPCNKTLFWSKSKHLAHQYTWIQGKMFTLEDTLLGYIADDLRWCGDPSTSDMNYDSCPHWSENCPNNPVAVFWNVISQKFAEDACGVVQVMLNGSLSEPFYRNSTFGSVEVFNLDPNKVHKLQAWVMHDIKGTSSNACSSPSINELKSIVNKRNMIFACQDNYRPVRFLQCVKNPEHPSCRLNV
Briefly: ELISA on coated CD38 extracellular protein.
Method: as §2

For test [8], the target named is T5, mouse CD38 extracellular protein (mouse, UniProt P56528 45-304).
T5 construct: extracellular domain; Purchased; also called CD38 protein molecules of mice
T5 sequence (looked up): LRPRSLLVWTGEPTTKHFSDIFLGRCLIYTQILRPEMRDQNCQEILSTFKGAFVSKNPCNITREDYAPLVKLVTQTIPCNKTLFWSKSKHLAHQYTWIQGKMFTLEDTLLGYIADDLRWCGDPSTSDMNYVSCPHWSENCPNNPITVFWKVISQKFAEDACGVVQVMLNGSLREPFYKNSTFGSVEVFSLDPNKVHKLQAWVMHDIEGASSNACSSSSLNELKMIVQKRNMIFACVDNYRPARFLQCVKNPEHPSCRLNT
Briefly: ELISA on coated CD38 extracellular protein.
Method: as §2

The target of test [9] is T6, antigen CD38 (UniProt P28907 43-300, limits assumed).
T6 construct: Soluble antigen; also called CD38 antigen
Kind of test: BIACORE SPR, antibody captured by anti-human IgG-Fab, CD38 as mobile phase.
Method: (§3) The antibody affinity was analyzed by BIACORE Biomacromolecule Interaction Apparatus (GE).

Test [10] addresses T6, antigen CD38. Kind of test: binding curve of FIG. 9; method not clearly stated.
Test [11] deals with T6, antigen CD38. Kind of test: BIACORE SPR by the method of Example 4.
Method: as §3

Positions count from the first letter of the chain named.

Method for BSA (BOVOGEN): Various proteins, such as milk (Beijing Bomed Biotechnology Co., Ltd.), BSA (BOVOGEN), CD19 (Beijing Yiqiao Shenzhou Biotechnology Co., Ltd.), TROP2 (Beijing Yiqiao Shenzhou Biotechnology Co., Ltd.), CD47 (Beijing Magpel Biotech Technology Co., Ltd.), CD38 (Beijing Yiqiao Shenzhou Biotechnology Co., Ltd.), Gas6 (R&D) and AXL (ACRO Biosystems) were respectively used to coat ELISA strips at 1 mg/ml at 4° C. overnight. After washing with PBST, 10% fetal bovine serum was added and blocked at 37° C. for 1 hour. […] After washing with PBST, horseradish peroxidase-labeled goat anti-human IgG HRP secondary antibodies (purchased from ThermoFisher Scientific) was added and reacted at room temperature for 30 minutes. After washing the plate with PBST (5 times), the residual drops were removed as possible on the absorbent paper. 100 ml TMB (eBioscience) was added to each well and placed at room temperature (20±50) in the dark for 1-5 min. 100 ml of 2N H₂SO₄ stop solution was added to each well to quench the substrate reaction, and the OD value was read at 450 nm with a microplate reader to analyze the antibody-protein binding ability.
Method for CD38-His fusion protein: An ELISA plate was coated with a PBS solution containing 1 μg/ml of CD38-His fusion protein at 4° C. overnight. The plate was then washed with a PBS solution containing 0.01% Tween-20 (PBST). 10% fetal bovine serum was added to the PBST and blocked at 37° C. for 1 hour. […] After washing with PBST, horseradish peroxidase-labeled goat anti-human IgG HRP secondary antibodies (purchased from Thermo Fisher Scientific) was added and reacted at 37° C. for 30 minutes. Then, the plate was washed with PBST (5 times), and the residual liquid drops were removed as possible on an absorbent paper. 100 μl of TMB (purchased from eBioscience) was added to each well, and placed at room temperature (20±5° C.) in the dark for 1-5 minutes. 100 μl of 2N H₂SO₄ stop solution was added to each well to quench the substrate reaction. The OD value was read at 450 nm with a microplate reader, and the binding ability of the antibody to the target antigen CD38-His was analyzed.

B1: Daratumumab (DARZALEX) (antibody, V domains shown)
VH: EVQLLESGGGLVQPGGSLRLSCAVSGFTFNSFAMSWVRQAPGKGLEWVSAISGSGGGTYYADSVKGRFTISRDNSKNTLYLQMNSLRAEDTAVYFCAKDKILWFGEPVFDYWGQGTLVTVSS
VL: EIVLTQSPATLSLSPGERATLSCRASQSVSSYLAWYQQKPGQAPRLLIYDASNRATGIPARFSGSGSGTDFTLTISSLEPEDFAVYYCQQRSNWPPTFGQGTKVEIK
On to B1, for which the EC50 stood at 0.151 µg/mL with CD38-His fusion protein; 0.0493 µg/mL in test [1]; 0.176 µg/mL in test [2]; 0.0951 µg/mL in [4]; 0.0509 µg/mL in test [5]. For the same molecule, the “ADCC EC50, Daudi target cells with NK92MI-CD16a effector cells (LDH release)” value in test [3] came out at 0.0046 µg/mL. Also, the “ADCC EC50, RPMI8226 target cells with NK92MI-CD16a effector cells (LDH release)” value in test [3] was 0.00494 µg/mL. Besides, in test [3], the “ADCC EC50, Raji target cells with NK92MI-CD16a effector cells (LDH release)” value was determined as 0.017 µg/mL. Moreover, in test [3], the “ADCC EC50, Ramos target cells with NK92MI-CD16a effector cells (LDH release)” value stood at 0.00301 µg/mL.

B2: humanized antibody SG003 (antibody, V domains shown)
VH: QVQLLESGGGLVQPGGSLKLSCVASGFDFSLYWMNWVRQAPGKGLEWIGKINPDSSTINYTPSLKDKFFISRDNAKNTLYLQMTKVRSEDTALYYCARLWIATGGFDYWGQGTTLTVSS
VL: EIVMTQSPASLSASLGQRATISCRASSSVSSSAFSYVHWYQQKSGQPPKLLIYLASNLESGVPARFSGSGSGTDFTLTIHPVESEDVATYYCHHSRELPFTFGSGTKLEIKR
notes: Full antibody expressed in CHO-S cells from vector pCMV-163 with a human IgG constant region; also called SG003 antibody
With B2, the EC50 came out at 0.0351 µg/mL in the test with CD38-His fusion protein, 0.0344 µg/mL in test [1], 0.0815 µg/mL in test [4] and 0.0367 µg/mL in test [5]. In addition, the binding result with BSA (BOVOGEN) is listed as “no binding”; in [6] it was “binds”; in test [7], “no binding”; in test [8], “no binding”. Moreover, in [3], the “ADCC EC50, Daudi target cells with NK92MI-CD16a effector cells (LDH release)” value is 0.00072 µg/mL. Moreover, the “ADCC EC50, RPMI8226 target cells with NK92MI-CD16a effector cells (LDH release)” value in [3] turned out to be 0.00146 µg/mL. Besides, the “ADCC EC50, Raji target cells with NK92MI-CD16a effector cells (LDH release)” value in [3] was found to be 0.00697 µg/mL. Also, in [3], the “ADCC EC50, Ramos target cells with NK92MI-CD16a effector cells (LDH release)” value came to 0.00069 µg/mL. Moreover, the Kd with antigen CD38 [9] came out at 321 pM.

B3: SG003M1 antibody (antibody, human IgG1, kappa, V domains shown)
VH: B2 VH with F27Y, D28N, W33Y, N52Q, D54E, N59Q, A102G, T103S
VL: B2 VL with T20S, S27N, F34Y, L58I, E59Q, E97Q, F100S
notes: also called randomly mutated antibody SG003M1-3
In turn, B3 gave an EC50 in the test with antigen CD38 [10] of 0.0157 µg/mL. In addition, in the test with antigen CD38 [11], the Kd was found to be 239 pM, the koff amounted to 0.000636 s⁻¹ and the kon amounted to 2.66e+06 M⁻¹ s⁻¹.

B4: SG003M3 antibody (antibody, human IgG1, kappa, V domains shown)
VH: B2 VH with N52S, T57S, I58L, L64V, F106Y, D107N
VL: B2 VL with S27N, S31T, L98V
notes: as for B3
In turn, B4 registered an EC50 in the test with antigen CD38 [10] of 0.0061 µg/mL.

B5: SG003M2 antibody (antibody, human IgG1, kappa, V domains shown)
VH: B2 VH with N52S, D54N, T61S, W100Y, T103S
VL: B2 VL with F34Y, N57D, E59Q, F100Y, T101S
notes: as for B3
Molecule B5 had a concentration giving a half-maximal response (EC50) with antigen CD38 [10] of 0.0278 µg/mL.

For the origin of these results see patent US20230250186A1 (published 2023).
